Assay results: article PMC9335323, “Single crystal spectroscopy and multiple structures from one crystal (MSOX) define catalysis in copper nitrite reductases” (Proceedings of the National Academy of Sciences of the …, 2022)

What was measured:
Br2DNiR = molecular target: T1, Br2DNiR (Bradyrhizobium sp. ORS 375, UniProt H0SLX7); assay: X-ray crystal structure (MSOX, nitrite-soaked crystal, DS1 […] Å); type: binding; details: 200 mM NaNO2 soak, pH 5.5, 100 K; side-on at type-2 Cu, full occupancy
T1 construct: gene nirK; two-domain enzyme, recombinant in E. coli with 6xHis tag cleaved by TEV; Cu-loaded T1 and T2 sites; CuNiR homotrimer, site at interface of two monomers
T1 sequence (H0SLX7 25-364): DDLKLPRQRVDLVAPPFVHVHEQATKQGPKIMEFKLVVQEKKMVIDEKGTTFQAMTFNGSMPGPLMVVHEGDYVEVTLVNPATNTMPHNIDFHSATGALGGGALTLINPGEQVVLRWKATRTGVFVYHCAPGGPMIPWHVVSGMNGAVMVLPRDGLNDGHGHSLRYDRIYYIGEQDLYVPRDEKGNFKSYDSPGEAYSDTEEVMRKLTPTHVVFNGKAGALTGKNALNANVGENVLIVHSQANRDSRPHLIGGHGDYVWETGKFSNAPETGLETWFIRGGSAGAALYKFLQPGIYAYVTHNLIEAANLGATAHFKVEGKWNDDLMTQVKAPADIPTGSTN

O=NO = assay: purified protein; details: conditions in supplement only

| Compound | X-ray crystal structure (MSOX, nitrite-soaked crystal, DS1 1.19 Å) (Br2DNiR) | Km (O=NO) | kcat (O=NO) |
| --- | --- | --- | --- |
| O=NO [nitrite] | full occupancy nitrite is seen bound to fully occupied T2Cu in a “side-on” orientation |  |  |
| Br2DNiR (Bradyrhizobium sp. ORS 375) |  | 7.4 ± 1.2 µM | 9 ± 0.5 s⁻¹ |
